Measured values reported in article PMC5095173, “Disulfide-activated protein kinase G Iα regulates cardiac diastolic relaxation and fine-tunes the Frank–Starling response” (Nature Communications, 2016).
Numbering of substitutions follows the chain as printed.

B1: Crip2 pS114 (protein, UniProt P36201 1-208, looked up)
Cysteine-rich protein 2: MASKCPKCDKTVYFAEKVSSLGKDWHKFCLKCERCNKTLTPGGHAEHDGKPFCHKPCYATLFGPKGVNIGGAGSYIYEKPPTEAPQVTGPIEVPVVRTEERKTSGPPKGPSKASSVTTFTGEPNMCPRCNKRVYFAEKVTSLGKDWHRPCLRCERCSKTLTPGGHAEHDGQPYCHKPCYGILFGPKGVNTGAVGSYIYDKDPEGTVQP
modifications: phosphorylated at S114
B2: Crip2 pS19 (protein, UniProt P36201 1-208, looked up)
Cysteine-rich protein 2: B1 Cysteine-rich protein 2
modifications: phosphorylated at S19
B3: Rrad pS25 (protein, UniProt P55043 1-306, looked up)
GTP-binding protein RAD: MTLNGGSGAGGSRSAGRERDRRRGSTPWGPAPPLHRRSMPVDERDLQAALTPGSLAATAAGTRTQGQRLDWPEGSSDSLSSGDSGSEDGVYKVHAAGAPGVGKSALARIFGGVEDGPEAEAAGHTYDRSITVDGEEASLMVYDIWEQDGGCWLPGHCMAMGDAYVIVYSITDKGSFEKASELRVQLRARRQTDVPIILVGNKSDLVRSREVSVDEGRACAEVFDCKFIETSAALHHNVQALFEGVVRQIRLRRDSKEDNARRQAGTRRRESLGKKAKLFLGRIVARNSRKMAFLAKSKSCHDLSVL
modifications: phosphorylated at S25
B4: Hspb1 pS9 (protein, UniProt P14602 1-209, looked up)
Heat shock protein beta-1: MTERRVPFSLLRSPSWEPFRDWYPAHSRLFDQAFGVPRLPDEWSQWFSAAGWPGYVRPLPAATAEGPAAVTLAAPAFSRALNRQLSSGVSEIRQTADRWRVSLDVNHFAPEELTVKTKEGVVEITGKHEERQDEHGYISRCFTRKYTLPPGVDPTLVSSSLSPEGTLTVEAPLPKAVTQSAEITIPVTFEARAQIGGPEAGKSEQSGAK
modifications: phosphorylated S9
B5: Clasp2 pS436 (protein, UniProt Q99JD4 1-1286, looked up)
CLIP-associating protein 2: MRRLICKRICDYKSFDDEESVDGNRPSSAASAFKVPAPKTPGNPVNSARKPGSAGGPKAGGTSKEGGAGAVDEDDFIKAFTDVPSIQIYSSRELEETLNKIREILSDDKHDWDQRANALKKIRSLLVAGAAQYDCFFQHLRLLDGALKLSAKDLRSQVVREACITVAHLSTVLGNKFDHGAEAIVPTLFNLVPNSAKVMATSGCAAIRFIIRHTHVPRLIPLITSNCTSKSVPVRRRSFEFLDLLLQEWQTHSLERHAAVLVETIKKGIHDADAEARVEARKTYMGLRNHFPGEAETLYNSLEPSYQKSLQTYLKSSGSVASLPQSDRSSSSSQESLNRPFSSKWSTANPSAVAGRVSVGGSKASPLPGSLQRSRSDIDVNAAAGAKAHHAAGQAVRSGRLGAGALNPGSYASLEDTSDKMDGTASEDGRVRAKLSTPLVAVGNAKTDSRGRSRTKMVSQSQPGSRSGSPGRVLTTTALSTVSSGAQRILVNSASAQKRSKIPRSQGCSREASPSRLSVARSSRIPRPSVSQGCSREASRESSRDTSPVRSFQPLGPGYGMSQSSRLSSSVSAMRVLNTGSDVEEAVADALLLGDIRTKKKPARRRYESYGMHSDDDANSDASSACSERSYSSRNGSIPTYMRQTEDVAEVLNRCASSNWSERKEGLLGLQNLLKNQRTLSRVELKRLCEIFTRMFADPHGKVFSMFLETLVDFIQVHKDDLQDWLFVLLTQLLKKMGADLLGSVQAKVQKALDVTRESFPNDLQFNILMRFTVDQTQTPSLKVKVAILKYIETLAKQMDPGDFINSSETRLAVSRVITWTTEPKSSDVRKAAQSVLISLFELNTPEFTMLLGALPKTFQDGATKLLHNHLRNTGNGTQSSMGSPLTRPTPRSPANWSSPLTSPTNTSQNTLSPSAFDYDTENMNSEDIYSSLRGVTEAIQNFSFRSQEDMSEPLKRDPKKEDGDTVCSGPGMSDPRAGGDAPDSSQPALDNKASLLHSVPLHSSPRSRDYNPYNYSDSISPFNKSALKEAMFDDDADQFPDDLSLDHSDLVAELLKELSNHNERIEERKIALYELMKLTQEESFSVWDEHFKTILLLLLETLGDKEPTIRALALKVLKEILRHQPARFKNYAELTVMKTLEAHKDPHKEVVRSAEEAASVLATSISPEQCIKVLCPIIQTADYPINLAAIKMQTKVIERVSKETLNLLLPEIMPGLIQGYDNSESSVRKACVFCLVAVHAVIGDELKPHLSQLTGSKMKLLNLYIKRAQTGSAGADPTTDVSGQS
modifications: phosphorylated at S436
B6: Dync1li1 pT408 (protein, UniProt Q9QXU8 1-523, looked up)
Cytoplasmic dynein 1 light …: MAAVGRVGSFGSSPPGLASTYASGPLANELASGSGGPAAGDDEDGQNLWSRILREVSTRSRSKLPTGKNVLLLGEDGAGKTSLIRRIQGIEEYKKGRGLEYLYLNVHDEDRDDQTRCNVWILDGDLYHKGLLKFSLDALSLRDTLVMLVVDMSKPWTALDSLQKWASVVREHVDKLKIPPEEMKEMEQKLIRDFQEYVEPGEDFPASPQRRATAAQEDRDDSVVLPLGADTLTHNLGLPVLVVCTKCDAISVLEKEHDYRDEHFDFIQSHIRKFCLQYGAALIYTSVKENKNIDLVYKYIVQKLYGFPYKIPAVVVEKDAVFIPAGWDNDKKIGILHENFQTLKIEDNFEDIITKPPVRKFVHEKEIMAEDDQVFLMKLQSLLAKQPPTAAGRPVDASPRVPGGSPRTPNRSVSSNVASVSPIPAGSKKIDPNMKAGATSEGVLANFFNSLLSKKTGSPGGPGVGGSPGGGAAGASTSLPPSAKKSGQKPVLSDVHAELDRITRKPASVSPTTPPSPTEGEAS
modifications: phosphorylated at T408
B7: Dync1li1 pS412 (protein, UniProt Q8R1Q8 1-523, looked up)
Cytoplasmic dynein 1 light …: B6 Cytoplasmic dynein 1 light … with R51C, R54S, A212T, A214G, D220G, I345V, T477P, P515T
modifications: phosphorylated S412
B8: Gpsm1 pS567 (protein, UniProt Q9R080 1-673, looked up)
G-protein-signaling modulator …: MASPAPPAAEELPGPAARRLYSRMEASCLELALEGERLCKAGDFKAGVAFFEAAVQVGTEDLKTLSAIYSQLGNAYFYLKEYARALQFHKHDLLLARTIGDRMGEAKASGNLGNTLKVLGRFDEAIVCCQRHLDIAQEQGDKVGEARALYNIGNVYHAKGKQLSWNAAQDPGHLPPDVRETLHRASEFYERNLSLVKELGDRAAQGRAYGNLGNTHYLLGNFTEATTFHKERLAIAKEFGDKAAERRAYSNLGNAHIFLGRFDVAAEHYKKTLQLSRQIRDQAVEAQACYSLGNTYTLLQDYERAAEYHLRHLVIAQELADRVGEGRACWSLGNAYVSMGSPAQALTFAKKHLQISQEIGDRNGELTARMNIAHLQLALGRLTSPAAAEKPDLAGYEAQGARPKRTQRLSAETWDLLRLPLDREQNGETHHTGDWRGPSRDSLPLPMRSRKYQEGPDAIERRPREGSHSPLDSADVRVQVPRTGIPRAPSSDEECFFDLLSKFQSSRMDDQRCPLEEGQAGAAEATAAPTLEERAAQPSVTASPQTEEFFDLIASSQSRRLDDQRASVGSLPGLRITLNNVGHLRGDGDPQEPGDEFFNMLIKYQSSRIDDQRCPPPDVLPRGPTMPDEDFFSLIQRVQAKRMDEQRVDLAGSPDQEASGLPDPRQQCPPGAS
modifications: phosphorylated at S567
B9: Atp5a1 pS76 (protein, UniProt P15999 44-553, looked up)
ATP synthase F(1) complex …: QKTGTAEMSSILEERILGADTSVDLEETGRVLSIGDGIARVHGLRNVQAEEMVEFSSGLKGMSLNLEPDNVGVVVFGNDKLIKEGDIVKRTGAIVDVPVGDELLGRVVDALGNAIDGKGPVGSKIRRRVGLKAPGIIPRISVREPMQTGIKAVDSLVPIGRGQRELIIGDRQTGKTSIAIDTIINQKRFNDGTDEKKKLYCIYVAIGQKRSTVAQLVKRLTDADAMKYTIVVSATASDAAPLQYLAPYSGCSMGEYFRDNGKHALIIYDDLSKQAVAYRQMSLLLRRPPGREAYPGDVFYLHSRLLERAAKMNDSFGGGSLTALPVIETQAGDVSAYIPTNVISITDGQIFLETELFYKGIRPAINVGLSVSRVGSAAQTRAMKQVAGTMKLELAQYREVAAFAQFGSDLDAATQQLLSRGVRLTELLKQGQYSPMAIEEQVAVIYAGVRGYLDKLEPSKITKFESAFLSHVVSQHQSLLGNIRSDGKISEQSDAKLKEIVTNFLAGFEP
modifications: phosphorylated at S76
B10: Fhl2 pS255 (protein, UniProt O70433 1-279, looked up)
Four and a half LIM domains …: MTERFDCHHCNESLYGKKYILKEENPHCVACFEELYANTCEECGTPIGCDCKDLSYKDRHWHEGCFHCSRCGSSLVDKPFAAKEEQLLCTDCYSNEYSSKCQECKKTIMPGTRKMEYKGSSWHETCFTCQRCQQPIGTKSFIPKENQNFCVPCYEKQYALQCVQCKKPITTGGVTYREQPWHKECFVCTACKKQLSGQRFTARDEFPYCLTCFCDLYAKKCAGCTNPISGLGGTKYISFEERQWHNDCFNCKKCSLSLVGRGFLTERDDILCPDCGKDI
modifications: phosphorylated S255
B11: Eml1 pS108 (protein, UniProt Q4V8C3 1-814, looked up)
Echinoderm …: MEDGFSSYSSLYDTSSLLQFCNDDSASAASSMEISDRIASLEQRVQMQEDDIQLLKSALADVVRRLNITEEQQAVLNRKGPTKARPLGQTLPLRTTVNNGTVLPKKPSASLPSPSGSRKEMVVPVTKSINRTSSSERVSPGGRRESSGDSKGSRNRTGSTSSSSSGKKNSESKPKEPTFSPEEGYVKMFLRGRPVTMYMPKDQVDSYSLEAKAELPTKRLKLEWVYGYRGRDCRNNLYLLPTGETVYFIASVVVLYNVEEQLQRHYAGHNDDVKCLAVHPDRITIATGQVAGTSKDGKQLPPHVRIWDSVTLNTLHVIGIGFFDRAVTCIAFSKSNGGSHLCAVDDSNDHVLSVWDWQREERLADVKCSNEAVFAADFHPTDTNIIVTCGKSHLYFWTLEGNSLNKKQGLFEKQEKPKFVLCVTFSENGDTITGDSSGNILVWGKGTNRISYAVQGAHEGGIFALCMLRDGTLVSGGGKDRRLISWNGNYQKLHKAEIPEQFGPIRTVAEGKGNVILIGTTRNFVLQGTLTGDFTPITQGHTDELWGLAIHASKPQFLTCGHDKHATLWDAVGHRPVWDKIIEDPAQSSGFHPSGSVVAVGTLTGRWFVFDTETKDLVTVHTDGNEQLSVMRYSPDGNFLAIGSHDNCIYIYGVSDNGRKYTRVGKCSGHSSFITHLDWSVNSQFLVSNSGDYEILYWVPSACKQVVSVETTRDIEWATYTCTLGFHVFGVWPEGSDGTDINAVCRAHEKKLLSTGDDFGKVHLFSYPCSQFRAPSHIYSGHSSHVTNVDFLCEDSHLISTGGKDTSIMQWRVI
modifications: phosphorylated at S108

tested on: PKGIα (analogue-sensitive M438G), disulfide-activated; test: Chemical genetic phosphoproteomic screen, disulfide-activated PKGIα M438G versus unactivated control; format: biochemical, human PKGIα; substrates in rat heart homogenate; details: control = PKGIα C42S/M438G
Method in brief: (§1)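 Substrates in rat left-ventricle homogenate (20 mg ml) are labelled by engineered Met438Gly PKGIα given a bulky N6-alkylated ATPγS analogue, either as disulfide-activated M438G (oxidized, DTT-free) or as cGMP-activated C42S/M438G. Covalent capture and LC–MS/MS identify sites relative to unactivated kinase.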

Molecule | log2 fold change Disulfide vs Control
B1 | 1.062
B2 | 1.661
B3 | -0.2493
B4 | -0.3759
B5 | 0.8616
B6 | 1.949
B7 | 1.658
B8 | 1.042
B9 | 1.372
B10 | 1.662
B11 | 1.496

tested on: PKGIα (analogue-sensitive C42S/M438G), cGMP-activated; test: Chemical genetic phosphoproteomic screen, cGMP-activated PKGIα C42S/M438G versus unactivated control; format: biochemical, human PKGIα; substrates in rat heart homogenate; details: control = PKGIα C42S/M438G
Method in brief: as §1

Molecule | log2 fold change cGMP vs Control
B1 | 3.456
B2 | 2.804
B3 | -0.2363
B4 | 1.482
B5 | 1.792
B6 | 3.758
B7 | 4.149
B8 | 2.926
B9 | 2.023
B10 | 3.732
B11 | 3.948
